Data reported in paper PMC8319368 (The Journal of Biological Chemistry, 2021).
Each block holds one binder with its values, some of them ahead of it.

Columns and labels:
native gel or EMSA = target: the molecule itself; assay: native gel or EMSA
[1] = target: T1, Saccharomyces cerevisiae Pol32, PCNA-binding subunit of DNA polymerase delta (ScPol32) (Saccharomyces cerevisiae, UniProt P47110 1-350); assay: ITC
T1 sequence: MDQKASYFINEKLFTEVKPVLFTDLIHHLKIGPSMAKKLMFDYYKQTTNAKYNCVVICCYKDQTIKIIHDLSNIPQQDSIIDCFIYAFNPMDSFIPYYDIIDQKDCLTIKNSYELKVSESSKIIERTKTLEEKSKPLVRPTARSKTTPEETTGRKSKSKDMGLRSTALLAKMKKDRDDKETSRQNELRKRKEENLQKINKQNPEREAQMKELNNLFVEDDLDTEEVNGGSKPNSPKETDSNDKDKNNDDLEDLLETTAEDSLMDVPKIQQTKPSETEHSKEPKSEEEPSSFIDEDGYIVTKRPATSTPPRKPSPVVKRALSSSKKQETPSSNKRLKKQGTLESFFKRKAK

[2] = target: T2, Saccharomyces cerevisiae Pol32, PCNA-binding subunit of DNA polymerase delta (ScPol32) (Saccharomyces cerevisiae), P47110; assay: ITC; details: remark: other sources report otherwise
T2 chain: T1 sequence

Kd [1]: 4.28 ± 0.325 µM
dH [1]: -1.24 ± 0.0554 kcal/mol
stoichiometry N [1]: 1.06 ± 0.035
B1: Neurospora crassa proliferating cell nuclear antigen (NcPCNA), GST tag cleaved (natural protein)
chain: MLEARLEQASILKKVVDAIKDLVQDCNFDCNDSGIALQAMDNSHVALVSMMLKTETFSPFRCDRNIALGVNLTSLTKVLRAAQNEDILTLKAEDAPDVLNLVFESSENDRISEYDLKLMDIDQEHLGIPDTEYAATISMPSSEFKRITTDLMAMSESVNIEASKDGVKFSCQGDIGNGSITLRQHTNVDKPSENIEIELSEPVSLTFSLKYLVNFCKASALSSTVKICLSNEVPLLVEYNISASSYLRFYLAPKIGDEE
stoichiometry N (native gel or EMSA): 3

Kd [2]: 2.75 µM
dH [2]: -1.48 kcal/mol
stoichiometry N [2]: 1.05
B2: Saccharomyces cerevisiae PCNA (ScPCNA), wild type, P15873 1-258 (natural protein)
chain: MLEAKFEEASLFKRIIDGFKDCVQLVNFQCKEDGIIAQAVDDSRVLLVSLEIGVEAFQEYRCDHPVTLGMDLTSLSKILRCGNNTDTLTLIADNTPDSIILLFEDTKKDRIAEYSLKLMDIDADFLKIEELQYDSTLSLPSSEFSKIVRDLSQLSDSINIMITKETIKFVADGDIGSGSVIIKPFVDMEHPETSIKLEMDQPVDLTFGAKYLLDIIKGSSLSDRVGIRLSSEAPALFQFDLKSGFLQFFLAPKFNDEE
